Drawing on PMC4709948, this text covers Kd for one substance.

Usually Kd stands for a measure of binding affinity in units of concentration. Read a low Kd as tighter binding.

The assay deals with GST-fused PRAK protein (UniProt Q8IW41). As to the kind of experiment: SPR; GST-fused PRAK captured by anti-GST antibodies on a CM5 chip; RAGE C-terminal region as analyte, 0 to 40 uM, HBS-EP buffer pH 7.4, 30 uL/min; Biacore X-100. Background: Surface plasmon resonance follows binding to a sensor surface in real time, without labels.
Sequence of UniProt Q8IW41 (Q8IW41 whole entry, the tested form may be a part): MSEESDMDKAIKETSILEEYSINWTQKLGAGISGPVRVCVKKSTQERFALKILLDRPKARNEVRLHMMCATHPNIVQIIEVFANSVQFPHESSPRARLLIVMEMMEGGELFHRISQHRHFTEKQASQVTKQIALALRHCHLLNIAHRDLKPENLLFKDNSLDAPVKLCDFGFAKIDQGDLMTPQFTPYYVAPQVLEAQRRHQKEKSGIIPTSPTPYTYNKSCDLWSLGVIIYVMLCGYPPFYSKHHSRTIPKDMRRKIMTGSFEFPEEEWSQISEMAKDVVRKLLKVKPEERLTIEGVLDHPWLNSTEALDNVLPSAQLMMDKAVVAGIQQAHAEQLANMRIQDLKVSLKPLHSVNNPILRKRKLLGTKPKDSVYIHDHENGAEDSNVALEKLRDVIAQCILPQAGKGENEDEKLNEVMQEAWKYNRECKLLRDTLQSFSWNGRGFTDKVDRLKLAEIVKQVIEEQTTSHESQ

Take “RAGE C-terminal region, SPR analyte (domain or fragment)”: the Kd was determined as 0.509 nM.
